Molecular target: T1, Di13_B2L2B4, cyclic pseudo-dihedral B component (construct number 2 of Table 3)
T1 construct: also called cyclic B
Assay: negative stain TEM, unlabelled construct

B1: A component of design #13 (D3 homooligomer, designed from 1d2t) (designed binder)
chain: MGHHHHHHGGLALVATGNDTTTKPDLYYLKNSEAINSLALLPPPPAVGSIAFLNDQAMYEQGRLLRNTERGKLAAEDANLSSGGVANAFSGAFGSPITEKDAPALHKLLTNMIEDAGDLATRSAKDHYMRIRPFAFYGVSTCNTTEQDKLSKNGSYPSGHTSIGWATALVLAEINPQRQNEILKRGYELGQSRVICGYHWQSDVDAARVVGSAVVATLHTNPEFQAQLIKAKIEFKQHQKEL
notes: also called component A; dihedral A
B1: binds.

From US20230287402A1 (University of Washington, published 2023)
